The values below come from US20250011363A1, “OPTIMIZED SHORTENED PEPTIDE THAT BINDS TO ACETYLCHOLINE RECEPTOR, AND USE THEREOF” (SKINMED CO., LTD., priority 2021, published 2025).

This test addresses acetylcholine receptor (Homo sapiens, UniProt P02708). As to the kind of experiment: SPR binding affinity (RU) of optimized 5mer/6mer/7mer peptides, Examples 6-7. To be noted: 6mer-2 Top sequence; SPR; peptides tested at 10 μM. Summed up:
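600 peptides per series (5mer, 6mer-1, 6mer-2), made from high- or low-frequency amino acid combinations, are screened by SPR at 10 μM; binding is recorded in RU.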
Background: SPR reads the build-up and loss of mass on a sensor chip optically.

acetylcholine receptor, sequence (P02708 21-457): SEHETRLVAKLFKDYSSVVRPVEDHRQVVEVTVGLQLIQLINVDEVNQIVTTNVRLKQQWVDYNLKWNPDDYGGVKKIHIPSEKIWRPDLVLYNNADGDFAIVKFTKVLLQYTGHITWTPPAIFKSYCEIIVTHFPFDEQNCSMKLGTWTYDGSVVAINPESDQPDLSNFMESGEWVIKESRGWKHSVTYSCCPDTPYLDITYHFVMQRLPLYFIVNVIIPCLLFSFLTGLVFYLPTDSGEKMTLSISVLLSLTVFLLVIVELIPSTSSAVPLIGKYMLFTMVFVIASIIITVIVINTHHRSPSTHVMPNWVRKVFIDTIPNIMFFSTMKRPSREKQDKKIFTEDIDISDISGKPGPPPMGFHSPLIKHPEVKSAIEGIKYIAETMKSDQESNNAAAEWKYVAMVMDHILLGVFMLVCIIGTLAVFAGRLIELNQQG

For the substance 6mer-2-92 (KVVCKR), the Binding affinity was determined as 131 Ru. With 6mer-2-93 (RWQTRR) the figure was 133 Ru; with 6mer-2-94 (RLYQRK), 126 Ru. Consider 6mer-2-95 (RRIYRK), for which the Binding affinity worked out at 142 Ru. With 6mer-2-96 (KWRQRK), the Binding affinity amounted to 154 Ru. Consider 6mer-2-97 (RQFYRK), for which the Binding affinity turned out to be 154 Ru. With 6mer-2-98 (RRQQRR) the figure was 148 Ru; with 6mer-2-99 (RQRSRR), 151 Ru. For the substance 6mer-2-100 (RRRCRR), the Binding affinity was found to be 142 Ru. Under 6mer-2-101 (RLICRK) stands 154 Ru. As to 6mer-2-102 (KVYQKK), the Binding affinity came out at 139 Ru. With 6mer-2-103 (RVVTKK), the Binding affinity was determined as 136 Ru. Consider 6mer-2-104 (RGVCRK), for which the Binding affinity amounted to 145 Ru.

In the case of 6mer-2-105 (RGFTRR), the Binding affinity is 151 Ru. As for 6mer-2-106 (RWVQRK), the Binding affinity came out at 123 Ru.

Take 6mer-2-107 (RGVYRK): the Binding affinity was found to be 144 Ru. With 6mer-2-108 (RVVYKK) the figure was 153 Ru; with 6mer-2-109 (RRVYRK), 144 Ru; with 6mer-2-110 (KSQLKK), 153 Ru. 6mer-2-111 (KLIRRK): the Binding affinity came out at 123 Ru. Under 6mer-2-112 (RLQQKR) stands 142 Ru. On to 6mer-2-113 (KRYSRK), for which the Binding affinity is listed as 145 Ru. For the substance 6mer-2-114 (KLQYRK), the Binding affinity was 121 Ru. On to 6mer-2-115 (KWQYRK), for which the Binding affinity turned out to be 144 Ru. On to 6mer-2-116 (KLQRKK), for which the Binding affinity is 126 Ru. Turning to 6mer-2-117 (KRYTRK), the Binding affinity was 148 Ru. On to 6mer-2-118 (KWFSRR), for which the Binding affinity is on record as 135 Ru. In the case of 6mer-2-119 (RSISKK), the Binding affinity is 139 Ru. Turning to 6mer-2-120 (RRQCRK), the Binding affinity is 146 Ru. Take 6mer-2-121 (KRVYRK): the Binding affinity was found to be 137 Ru. As for 6mer-2-122 (RVITKK), the Binding affinity is recorded as 125 Ru. On to 6mer-2-123 (RQFTKR), for which the Binding affinity is 146 Ru. For the substance 6mer-2-124 (KWQLKR), the Binding affinity is listed as 126 Ru.

For the substance 6mer-2-125 (KVQLRR), the Binding affinity turned out to be 142 Ru.

Turning to 6mer-2-126 (KWLYRR), the Binding affinity is 148 Ru.

In the case of 6mer-2-127 (RLYLRK), the Binding affinity is listed as 136 Ru. As to 6mer-2-128 (KSYYRR), the Binding affinity amounted to 147 Ru.

As to 6mer-2-129 (KSVLRK), the Binding affinity is 139 Ru. As to 6mer-2-130 (RGVCRR), the Binding affinity worked out at 122 Ru. Turning to 6mer-2-131 (KQQTKR), the Binding affinity was 148 Ru.

Regarding 6mer-2-132 (KLYCKK), the Binding affinity turned out to be 139 Ru. As to 6mer-2-133 (KRRLKK), the Binding affinity turned out to be 145 Ru. Turning to 6mer-2-134 (RLFQRK), the Binding affinity worked out at 148 Ru. For 6mer-2-135 (RWFYKK), the Binding affinity worked out at 124 Ru. Consider 6mer-2-137 (KVFCKK), for which the Binding affinity worked out at 135 Ru. In the case of 6mer-2-138 (KQRRRK), the Binding affinity is 153 Ru.

On to 6mer-2-139 (KLFRKK), for which the Binding affinity was 149 Ru. With 6mer-2-140 (KGRLKK) the figure was 142 Ru; with 6mer-2-141 (KWYQKK), 154 Ru. As for 6mer-2-142 (RWVLRR), the Binding affinity is on record as 121 Ru. Take 6mer-2-143 (RRVCRR): the Binding affinity worked out at 128 Ru.

For the substance 6mer-2-144 (KSIRRK), the Binding affinity was 133 Ru.

For 6mer-2-145 (RQYYKK), the Binding affinity amounted to 128 Ru. With 6mer-2-146 (KQLLKR) the figure was 135 Ru; with 6mer-2-147 (RQYTKR), 133 Ru; with 6mer-2-148 (KGQYKK), 145 Ru. With 6mer-2-149 (KGQQRK) the figure was 127 Ru; with 6mer-2-150 (KRILKR), 136 Ru; with 6mer-2-151 (KQLRKR), 142 Ru. Take 6mer-2-152 (RQFYKR): the Binding affinity was 139 Ru. With 6mer-2-153 (RVYSRR) the figure was 124 Ru; with 6mer-2-154 (KRVTKR), 148 Ru. As to 6mer-2-155 (KGVYKK), the Binding affinity is given as 139 Ru. On to 6mer-2-156 (KGLQRR), for which the Binding affinity is reported as 127 Ru.

As to 6mer-2-157 (RSYRKK), the Binding affinity amounted to 153 Ru. As for 6mer-2-158 (RSFLRR), the Binding affinity turned out to be 145 Ru. With 6mer-2-159 (RQYYRK) the figure was 127 Ru; with 6mer-2-160 (RVRRKK), 121 Ru; with 6mer-2-161 (KWRRKK), 154 Ru. On to 6mer-2-162 (KVISKR), for which the Binding affinity was 136 Ru. With 6mer-2-163 (KWFYRR) the figure was 149 Ru; with 6mer-2-164 (KRQRRK), 135 Ru; with 6mer-2-165 (KWFTRR), 139 Ru.

Turning to 6mer-2-166 (RWLRKR), the Binding affinity came to 125 Ru. As for 6mer-2-167 (KLFQKR), the Binding affinity worked out at 145 Ru. On to 6mer-2-168 (RVFLKR), for which the Binding affinity was 135 Ru.

With 6mer-2-169 (KRQSRR), the Binding affinity stood at 123 Ru.

6mer-2-170 (RQYQKK): the Binding affinity is 128 Ru. Regarding 6mer-2-171 (RQQTRR), the Binding affinity is 139 Ru. Under 6mer-2-172 (KVIRKK) stands 128 Ru.

Take 6mer-2-173 (RQQCKK): the Binding affinity came to 127 Ru. Consider 6mer-2-174 (KLLRKR), for which the Binding affinity is 142 Ru. 6mer-2-175 (KVYLRK): the Binding affinity was 137 Ru. As for 6mer-2-176 (RWIYRR), the Binding affinity came to 144 Ru.

Consider 6mer-2-177 (RSVTKK), for which the Binding affinity worked out at 136 Ru. Consider 6mer-2-178 (KWLLRR), for which the Binding affinity is recorded as 133 Ru.

In the case of 6mer-2-179 (RRVYRR), the Binding affinity is given as 121 Ru. 6mer-2-180 (RLRLKR): the Binding affinity is 142 Ru. Regarding 6mer-2-181 (RWQQKK), the Binding affinity turned out to be 139 Ru. For the substance 6mer-2-182 (KLFYKK), the Binding affinity is recorded as 139 Ru. Consider 6mer-2-183 (RLQLRR), for which the Binding affinity is recorded as 154 Ru. Consider 6mer-2-184 (KWVSRR), for which the Binding affinity is 136 Ru. As for 6mer-2-185 (RGYQKR), the Binding affinity was 137 Ru.

On to 6mer-2-186 (KQICRK), for which the Binding affinity is recorded as 127 Ru. For the substance 6mer-2-187 (KRRRRK), the Binding affinity came to 145 Ru.

For the substance 6mer-2-188 (RGYTKR), the Binding affinity was 142 Ru. In the case of 6mer-2-189 (RWQCKK), the Binding affinity is 121 Ru.
